The experiment has as its target T1, CD122-Fc (UniProt P14784 27-240, limits assumed).
T1 construct: Analyte flowed over the chip in SPR at 500, 250, 125, 62.5 and 31.25 nM; also called Fc-CD122; IL-2Rbeta
T1 sequence (looked up): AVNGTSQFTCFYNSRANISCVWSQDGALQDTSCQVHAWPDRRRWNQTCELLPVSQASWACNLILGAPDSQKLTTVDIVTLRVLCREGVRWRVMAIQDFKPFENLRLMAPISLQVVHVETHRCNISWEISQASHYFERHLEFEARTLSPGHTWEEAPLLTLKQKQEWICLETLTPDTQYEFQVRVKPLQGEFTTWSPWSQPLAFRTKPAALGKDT
The experiment in a line: SPR, protease-cleaved construct amine-coupled on chip, CD122-Fc flowed.

Protocol: For SPR studies testing binding of masked and non-masked IL-2 polypeptide constructs, Reichert Carboxymethyl Dextran Hydrogel Surface Sensor Chips were coated and immobilized with the construct of interest (e.g., a masked IL-2 polypeptide construct or non-masked IL-2 polypeptide construct) at 30 ug/ml in 10 mM Sodium Acetate, pH 5.0 via amine coupling with EDC and NHS. […] Using a Reichert 4Channel SPR, dilutions of CD25 or CD122 were flowed over the clips with the immobilized construct to determine the on rate at 25 degrees C. At equilibrium (approximately 3 minutes), the flow buffer was changed to PBST, to determine the off rates over 6 minutes. Between each run the chip was regenerated with 10 mM glycine, pH 2.0.
For some structures, when applicable, the KD was determined for the construct with or without having been previously cleaved by a protease.

B1: AK168 after protease cleavage (ligand)
chain: LYHPSGPAPTSSSTKKTQLQLEHLLLDLQMILNGINNYKNPKLTAMLTAKFAMPKKATELKHLQCLEEALKPLEEVLNLAQSKNFHLRPRDLISNINVIVLELKGSETTFMCEYADETATIVEFLNRWITFAQSIISTLT
notes: also called AK168 Cleavage Product
A word on the Kd: it is the equilibrium constant for the complex coming apart. A higher Kd goes with a looser complex. For B1, binding was characterised by a dissociation constant (Kd) of 175 nM.

These data come from patent publication US20230151072A1 (XILIO DEVELOPMENT, published 2023).
